Measurements reported in article PMC10546719.

Tests used:
[1] = biological target: syndecan-1 (human (endogenous in Caco-2)) (UniProt P18827)
[2] = biological target: syndecan-1 (human (endogenous in Caco-2)) (UniProt P18827); remark: listed apart in the source

Sequence of UniProt P18827 (P18827 23-310): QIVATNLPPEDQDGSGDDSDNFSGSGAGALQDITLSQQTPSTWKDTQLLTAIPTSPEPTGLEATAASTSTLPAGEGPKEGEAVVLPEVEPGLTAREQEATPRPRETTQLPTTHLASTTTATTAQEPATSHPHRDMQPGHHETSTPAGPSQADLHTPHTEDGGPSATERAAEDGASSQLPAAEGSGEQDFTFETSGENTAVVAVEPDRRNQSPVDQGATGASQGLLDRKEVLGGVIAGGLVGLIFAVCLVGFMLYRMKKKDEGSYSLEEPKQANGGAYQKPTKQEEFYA

In the case of “recombinant Trichinella spiralis C-type lectin with GST tag (GST-rTsCTL) (natural protein)”, the reduction of the rTsCTL (10 µg/mL) promotion of larval invasion of Caco-2 cells by 2.5-20 mM β-xyloside [1] is reported as 46.8% and the inhibition of the rTsCTL (10 µg/mL) promotion of larval invasion of Caco-2 cells by 2.5-20 µM Stattic [2] is reported as 49.3%.
